For orientation: Kd means the equilibrium constant for the complex coming apart. Read a high Kd as weaker binding.

The labels stand for the following.
B1: His6-yNpl4^113–580 A494F (domain or fragment, Saccharomyces cerevisiae, UniProt P33755 113-580, looked up)
chain: IKELAVDEELEKEDGLIPRQKSKLCKHGDRGMCEYCSPLPPWDKEYHEKNKIKHISFHSYLKKLNENANKKENGSSYISPLSEPDFRINKRCHNGHEPWPRGICSKCQPSAITLQQQEFRMVDHVEFQKSEIINEFIQAWRYTGMQRFGYMYGSYSKYDNTPLGIKAVVEAIYEPPQHDEQDGLTMDVEQVKNEMLQIDRQAQEMGLSRIGLIFTDLSDAGAGDGSVFCKRHKDSFFLSSLEVIMAARHQTRHPNVSKYSEQGFFSSKFVTCVISGNLEGEIDISSYQVSTEAEALVTADMISGSTFPSMAYINDTTDERYVPEIFYMKSNEYGITVKENAKPAFPVDYLLVTLTHGFPNTDTETNSKFVSSTGFPWSNRQFMGQSQDYQELKKYLFNVASSGDFNLLHEKISNFHLLLYINSLQILSPDEWKLLIESAVKNEWEESLLKLVSSAGWQTLVMILQESG
notes: source: E. coli Rosetta (DE3), purified (Ni-NTA, Resource Q); not shown: His6, N-terminal, kept
B2: His6-yNpl4^113–580 S498R (domain or fragment, Saccharomyces cerevisiae, UniProt P33755 113-580, looked up)
chain: B1 chain with F382A, S386R
notes: as for B1
B3: FlAsH-labeled His6-SUMO-yUfd1^288–305-GWCCPGCC E296A (peptide, UniProt P53044 288-305, looked up)
chain: {His6-SUMO}-EPAKLDLPAGQLFFGFPMGWCCPGCC
modifications: cysteine pairing not given here; also: FlAsH label bound to CCPGCC motif
notes: Ufd1 of Saccharomyces cerevisiae (yUfd1), residues 288-305 (NBM); also called yUfd1 E296A; source: E. coli Rosetta (DE3) (pCold-SUMO), purified (Ni-NTA, Resource Q), labeled with FlAsH-EDT2; not shown: His6, N-terminal, kept; SUMO, N-terminal, kept
B4: FlAsH-labeled His6-SUMO-yUfd1^288–305-GWCCPGCC L292A (peptide, UniProt P53044 288-305, looked up)
chain: {His6-SUMO}-EPAKADLPEGQLFFGFPMGWCCPGCC
modifications: cysteine pairing not given here; also: FlAsH label bound to CCPGCC motif
notes: Ufd1 of Saccharomyces cerevisiae (yUfd1), residues 288-305 (NBM); also called yUfd1 L292A; source: E. coli Rosetta (DE3) (pCold-SUMO), purified (Ni-NTA, Resource Q), labeled with FlAsH-EDT2; not shown: His6, N-terminal, kept; SUMO, N-terminal, kept
B5: FlAsH-labeled His6-SUMO-yUfd1^288–305-GWCCPGCC G297Y (peptide, UniProt P53044 288-305, looked up)
chain: {His6-SUMO}-EPAKLDLPEYQLFFGFPMGWCCPGCC
modifications: cysteine pairing not given here; also: FlAsH label bound to CCPGCC motif
notes: Ufd1 of Saccharomyces cerevisiae (yUfd1), residues 288-305 (NBM); also called yUfd1 G297Y; source: E. coli Rosetta (DE3) (pCold-SUMO), purified (Ni-NTA, Resource Q), labeled with FlAsH-EDT2; not shown: His6, N-terminal, kept; SUMO, N-terminal, kept
B6: FlAsH-labeled His6-SUMO-yUfd1^288–305-GWCCPGCC G297R (peptide, UniProt P53044 288-305, looked up)
chain: {His6-SUMO}-EPAKLDLPERQLFFGFPMGWCCPGCC
modifications: cysteine pairing not given here; also: FlAsH label bound to CCPGCC motif
notes: Ufd1 of Saccharomyces cerevisiae (yUfd1), residues 288-305 (NBM); also called yUfd1 G297R; source: E. coli Rosetta (DE3) (pCold-SUMO), purified (Ni-NTA, Resource Q), labeled with FlAsH-EDT2; not shown: His6, N-terminal, kept; SUMO, N-terminal, kept
B7: FlAsH-labeled His6-SUMO-yUfd1^288–305-GWCCPGCC L294A (peptide, UniProt P53044 288-305, looked up)
chain: {His6-SUMO}-EPAKLDAPEGQLFFGFPMGWCCPGCC
modifications: cysteine pairing not given here; also: FlAsH label bound to CCPGCC motif
notes: Ufd1 of Saccharomyces cerevisiae (yUfd1), residues 288-305 (NBM); also called yUfd1 L294A; source: E. coli Rosetta (DE3) (pCold-SUMO), purified (Ni-NTA, Resource Q), labeled with FlAsH-EDT2; not shown: His6, N-terminal, kept; SUMO, N-terminal, kept
B8: FlAsH-labeled His6-SUMO-yUfd1^288–305-GWCCPGCC L299A (peptide, UniProt P53044 288-305, looked up)
chain: {His6-SUMO}-EPAKLDLPEGQAFFGFPMGWCCPGCC
modifications: cysteine pairing not given here; also: FlAsH label bound to CCPGCC motif
notes: Ufd1 of Saccharomyces cerevisiae (yUfd1), residues 288-305 (NBM); also called yUfd1 L299A; source: E. coli Rosetta (DE3) (pCold-SUMO), purified (Ni-NTA, Resource Q), labeled with FlAsH-EDT2; not shown: His6, N-terminal, kept; SUMO, N-terminal, kept
B9: FlAsH-labeled His6-SUMO-yUfd1^288–305-GWCCPGCC F303A (peptide, UniProt P53044 288-305, looked up)
chain: {His6-SUMO}-EPAKLDLPEGQLFFGAPMGWCCPGCC
modifications: cysteine pairing not given here; also: FlAsH label bound to CCPGCC motif
notes: Ufd1 of Saccharomyces cerevisiae (yUfd1), residues 288-305 (NBM); also called yUfd1 F303A; source: E. coli Rosetta (DE3) (pCold-SUMO), purified (Ni-NTA, Resource Q), labeled with FlAsH-EDT2; not shown: His6, N-terminal, kept; SUMO, N-terminal, kept
B10: FlAsH-labeled His6-SUMO-yUfd1^288–305-GWCCPGCC G297L (peptide, UniProt P53044 288-305, looked up)
chain: {His6-SUMO}-EPAKLDLPELQLFFGFPMGWCCPGCC
modifications: cysteine pairing not given here; also: FlAsH label bound to CCPGCC motif
notes: Ufd1 of Saccharomyces cerevisiae (yUfd1), residues 288-305 (NBM); also called yUfd1 G297L; source: E. coli Rosetta (DE3) (pCold-SUMO), purified (Ni-NTA, Resource Q), labeled with FlAsH-EDT2; not shown: His6, N-terminal, kept; SUMO, N-terminal, kept
B11: FlAsH-labeled His6-SUMO-yUfd1^288–305-GWCCPGCC M305A (peptide, UniProt P53044 288-305, looked up)
chain: {His6-SUMO}-EPAKLDLPEGQLFFGFPAGWCCPGCC
modifications: cysteine pairing not given here; also: FlAsH label bound to CCPGCC motif
notes: Ufd1 of Saccharomyces cerevisiae (yUfd1), residues 288-305 (NBM); also called yUfd1 M305A; source: E. coli Rosetta (DE3) (pCold-SUMO), purified (Ni-NTA, Resource Q), labeled with FlAsH-EDT2; not shown: His6, N-terminal, kept; SUMO, N-terminal, kept
B12: FlAsH-labeled His6-SUMO-yUfd1^288–305-GWCCPGCC F301A (peptide, UniProt P53044 288-305, looked up)
chain: {His6-SUMO}-EPAKLDLPEGQLFAGFPMGWCCPGCC
modifications: cysteine pairing not given here; also: FlAsH label bound to CCPGCC motif
notes: Ufd1 of Saccharomyces cerevisiae (yUfd1), residues 288-305 (NBM); also called yUfd1 F301A; source: E. coli Rosetta (DE3) (pCold-SUMO), purified (Ni-NTA, Resource Q), labeled with FlAsH-EDT2; not shown: His6, N-terminal, kept; SUMO, N-terminal, kept

Substitutions are numbered along the chain they refer to. Names may count otherwise. No end group written: not given here.

T1 sequence (P0CG48 1-304, one chain of several): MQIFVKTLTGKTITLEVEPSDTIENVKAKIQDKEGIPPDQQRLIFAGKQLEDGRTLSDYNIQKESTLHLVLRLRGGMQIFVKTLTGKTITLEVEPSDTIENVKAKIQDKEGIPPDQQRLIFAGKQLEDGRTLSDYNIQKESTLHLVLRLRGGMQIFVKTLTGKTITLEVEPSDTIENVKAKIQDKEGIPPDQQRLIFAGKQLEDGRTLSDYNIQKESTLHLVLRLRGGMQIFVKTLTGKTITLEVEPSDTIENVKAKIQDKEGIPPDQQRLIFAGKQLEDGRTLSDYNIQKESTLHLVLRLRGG

One assay addresses T1, M1-Ub4 (UniProt P0CG48 1-76; P0CG48 1-76; P0CG48 1-76; P0CG48 1-76).
T1 construct: ubiquitin (Ub), first unit; ubiquitin (Ub), second unit; ubiquitin (Ub), third unit; ubiquitin (Ub), fourth unit
Kind of assay: SPR; Biacore T200, 25 °C; wild-type or mutant His6-yNpl4^113–580, yUfd1–His6-yNpl4^113–580 or His6-hNpl4 immobilized on a CM5 chip by amine coupling; Ub2 or Ub4 in two-fold dilution series injected 60 s at 10 μL per min in 10 mM HEPES-NaOH pH 7.5, 150 mM NaCl, 0.05% Tween-20, 0.5 g/L BSA; equilibrium Kd. As to conditions: both partners purified.
With B1, the affinity, expressed as Kd, was 84 µM. This counts as double-digit micromolar. The same measure, in the same setting: then B2, with 136 µM.

The next assay concerns the target T2, His6-yNpl4^113–580 (Saccharomyces cerevisiae, UniProt P33755 113-580).
T2 construct: codon-optimized synthetic cDNA; also called WT; WT #1; source: E. coli Rosetta (DE3), purified (Ni-NTA, Resource Q); also in lysate, mixed with cells expressing GST-yUfd1 for co-purification; not shown: His6, N-terminal, kept
T2 sequence (looked up): B1 chain with F382A
Nature of the assay: fluorescence polarisation; fluorescence anisotropy; 1 nM FlAsH-labeled His6-SUMO-yUfd1 peptide, His6-yNpl4^113–580 in two-fold dilution series; 25 °C; 50 mM Tris-HCl pH 8.0, 100 mM NaCl, 5 mM β-mercaptoethanol, 0.1 g/L BSA. As to conditions: both partners purified. (In general: Polarisation of emitted light reports the rotation of a fluorescent probe.)
As to B3, the Kd came out at 0.437 µM.

B4 came in with a Kd of 5.29 µM. This Kd is about 12-fold higher than that of the molecule before. B5: the equilibrium dissociation constant (Kd) was determined as 2.14 µM.

Consider B6, for which the dissociation constant Kd is 20.9 µM. Still for that read-out and setting: then B7, with 0.527 µM; and B8, with 12.7 µM. Still for that read-out and setting: then B9, with 1.77 µM; and B10, with 0.619 µM. Still for that read-out and setting: then B11, with 0.261 µM; and B12, with 20.8 µM.
